Legend:
[1] = molecular target: T1, I-SceI homing endonuclease (expressed in HEK-293 from pSce) (UniProt P03882 P03882:1-235); assay: cell_activity; RFP+ over C.Red.30, hand counts (4-fold by flow cytometry)
T1 sequence: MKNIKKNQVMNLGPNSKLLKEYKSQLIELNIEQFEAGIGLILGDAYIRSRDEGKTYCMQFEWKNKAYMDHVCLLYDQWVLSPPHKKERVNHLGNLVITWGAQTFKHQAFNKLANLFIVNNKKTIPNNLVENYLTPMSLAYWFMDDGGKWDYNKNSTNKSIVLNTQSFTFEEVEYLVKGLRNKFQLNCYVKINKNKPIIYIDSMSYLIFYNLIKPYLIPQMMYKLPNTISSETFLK
Description: (§1) Protocols, 1:1412-1428 (2006)) 24 h before transfection. For transfections in HEK-293 cells, the plasmid DNA was used in the amount of 0.5 μg for the expression vector, as well as 0.5 μg for the targeted vector, and the repairing DNA oligonucleotide used was 1 μg, unless otherwise indicated. For the transfections with I-SceI digested pLDSLm, 0.5 m g of the linearized pLDSLm vector was used with 1 m g of repairing DNA oligonucleotide. Digestion of the pLDSLm vector was done using I-SceI (New England Biolabs, Ipswich, Mass., USA). Ten micrograms of plasmid pLDSLm was digested using 15 U I-SceI, 250 ng bovine serum albumin (BSA), 10×I-SceI buffer (New England Biolabs, Ipswich, Mass., USA) and water to a final volume of 50 μl. Digestions were done overnight at 37° C. In all transfection experiments, the oligonucleotides and the plasmid were diluted in DMEM without supplements, and then PEI was added, the solution was vortexed and added to the wells 10-15 min later. Red fluorescent cells were visualized by fluorescent microscopy using a Zeiss Observer A1 microscope and an AxioCam MRm camera (Zeiss, Thornwood, N.Y., USA). […] For certain transfections, wells of 24-well plates were seeded with 150,000 cells (on the day before transfection) and 5-8 days after transfection individual fluorescent cells per well were counted using a fluorescence microscope just before flow cytometry analysis. […]

[2] = molecular target: T2, I-SceI homing endonuclease (expressed in yeast from GAL1-10 promoter) (UniProt P03882 P03882:1-235); assay: cell_activity; gene correction over P1-r-P2.TRP5.40; I-SceI induced before transformation
T2 sequence: T1 sequence
Description: Briefly, 50 ml of yeast extract-peptone-lactic acid (YPLac) (lactic acid 2%), pH 5.8, or yeast extract-peptone-dextrose (YPD) liquid culture was inoculated about 24 h before transformation and incubated with vigorous shaking at 30° C. YPLac was used as a neutral carbon source so as not to induce I-SceI expression until plating the transformations to selective galactose-containing media. YPD was used to repress I-SceI expression until plating the transformations to selective glucose-containing media. Transformations were done with 1 nmol of total oligonucleotide DNA, with the exception of the PAGE-purified oligonucleotides in which transformations were done with 500 pmol of total oligonucleotide DNA. For the transformations testing to determine whether the aptamer was working in trans, two oligonucleotides were used, 500 pmol of each oligonucleotide, such that the combined total oligonucleotide DNA used was 1 nmol. Sequences of oligonucleotides used for repair can be found in Table 1. Cells from each transformation were diluted appropriately and plated to synthetic complete medium lacking the respective amino acid and containing 2% galactose for I-SceI induction, 2 or 0.2% galactose for HO induction or 2% glucose for I-SceI or HO repression. […] Viability after transformation was calculated by plating to glucose-containing synthetic complete medium. […]

[3] = molecular target: T1, I-SceI homing endonuclease (expressed …); assay: cell_activity; RFP+ over C.Red.40, flow cytometry
Description: as §1

B1: A7.Red.30 (ssDNA)
DNA: GCGGGCGCTGTTGACAGCGGTCAGGTGGATGGGATGCAGGACTCCTCCCTGCAGGACGGCTGCTTC
activity [1]: 16 fold

B2: P1-A7-P2.TRP5.40 (ssDNA)
DNA: CTTCTGCCCGCCTCCTTCCGCGGGCGCTGTTGACAGCGGTCAGGTGGATGGGATGGACGAGATAGGCGGACACTGGTTTTGATGAAGCTGTCGCGGATCCCACATTCTGGGAAG
activity [2]: 1.25 fold

B3: A7.Red.40 (ssDNA)
DNA: GCGGGCGCTGTTGACAGCGGTCAGGTGGATGGGATGTGACCCAGGACTCCTCCCTGCAGGACGGCTGCTTCATCTA
activity [3]: 6 fold

Reference: patent publication US20160032292, “Aptamer-Guided Gene Targeting” (Georgia Tech Research Corporation, published 2016)
